Laboratory results as given in the supplement of paper PMC5998384.

Experiments:
HeLa Kyoto [1] = assay: solubility change mitosis vs G1/S (difference of NP-40 vs SDS log2 ratios) (log2 ratio difference); higher = more soluble in mitosis
HeLa Kyoto [2] = assay: thermal stability score vs G1/S (z-score of summed log2 fold changes over temperatures); higher = more thermally stable than in G1/S
HeLa Kyoto [3] = assay: solubility in G1/S (NP-40 vs SDS abundance) (log2 ratio); higher = more soluble; conditions: cell cycle stage: G1/S
HeLa Kyoto [4] = assay: melting temperature (median over replicates), in situ; higher = more thermally stable
[5] = cell cycle stage: early G1 (4.5 h after nocodazole release)
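Throughout, for melting temperature (median over replicates), in situ: HeLa Kyoto cells synchronized by double thymidine or nocodazole block, proteins quantified by TMT10plex mass spectrometry, three independent biological replicates.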
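Throughout, for solubility change mitosis vs G1/S (difference of NP-40 vs SDS log2 ratios): synchronized HeLa Kyoto cells (double thymidine block for G1/S, nocodazole release for mitosis), protein amounts in NP-40 versus SDS lysates quantified by mass spectrometry, three biological replicates.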
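Throughout, for solubility in G1/S (NP-40 vs SDS abundance): HeLa Kyoto cells arrested at G1/S by double thymidine block, proteins quantified by TMT10plex mass spectrometry in mild NP-40 versus SDS extracts, three biological replicates.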
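Throughout, for thermal stability score vs G1/S (z-score of summed log2 fold changes over temperatures): synchronized HeLa Kyoto cells, proteins quantified by TMT10plex mass spectrometry, three biological replicates, mitosis taken 0.5 h after nocodazole release, G1/S directly after double thymidine block.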

Row | Substance | solubility change mitosis (log2) (HeLa Kyoto [1]) | thermal stability score (HeLa Kyoto [2]; [5]) | thermal stability score (HeLa Kyoto [2]; cell cycle stage: mitosis) | solubility in G1/S (log2) (HeLa Kyoto [3]) | melting temperature (HeLa Kyoto [4]; cell cycle stage: G1/S) [°C] | melting temperature (HeLa Kyoto [4]; cell cycle stage: mitosis) [°C]
1 | MAEDDPYLGRPEQMFHLDPSLTHTIFNPEVFQPQMALPTDGPYLQILEQPKQRGFRFRYVCEGPSHGGLPGASSEKNKKSYPQVKICNYVGPAKVIVQLVTNGKNIHLHAHSLVGKHCEDGICTVTAGPKDMVVGFANLGILHVTKKKVFETLEARMTEACIRGYNPGLLVHPDLAYLQAEGGGDRQLGDREKELIRQAALQQTKEMDLSVVRLMFTAFLPDSTGSFTRRLEPVVSDAIYDSKAPNASNLKIVRMDRTAGCVTGGEEIYLLCDKVQKDDIQIRFYEEEENGGVWEGFGDFSPTDVHRQFAIVFKTPKYKDINITKPASVFVQLRRKSDLETSEPKPFLYYPEIKDKEEVQRKRQKLMPNFSDSFGGGSGAGAGGGGMFGSGGGGGGTGSTGPGYSFPHYGFPTYGGITFHPGTTKSNAGMKHGTMDTESKKDPEGCDKSDDKNTVNLFGKVIETTEQDQEPSEATVGNGEVTLTYATGTKEESAGVQDNLFLEKAMQLAKRHANALFDYAVTGDVKMLLAVQRHLTAVQDENGDSVLHLAIIHLHSQLVRDLLEVTSGLISDDIINMRNDLYQTPLHLAVITKQEDVVEDLLRAGADLSLLDRLGNSVLHLAAKEGHDKVLSILLKHKKAALLLDHPNGDGLNAIHLAMMSNSLPCLLLLVAAGADVNAQEQKSGRTALHLAVEHDNISLAGCLLLEGDAHVDSTTYDGTTPLHIAAGRGSTRLAALLKAAGADPLVENFEPLYDLDDSWENAGEDEGVVPGTTPLDMATSWQVFDILNGKPYEPEFTSDDLLAQGDMKQLAEDVKLQLYKLLEIPDPDKNWATLAQKLGLGILNNAFRLSPAPSKTLMDNYEVSGGTVRELVEALRQMGYTEAIEVIQAASSPVKTTSQAHSLPLSPASTRQQIDELRDSDSVCDSGVETSFRKLSFTESLTSGASLLTLNKMPHDYGQEGPLEGKI [NFKB1] | -0.0714 | 0.372 | 0.928 | 0.137 | 48 | 48.5
2 | MRRMWATQGLAVALALSVLPGSRALRPGDCEVCISYLGRFYQDLKDRDVTFSPATIENELIKFCREARGKENRLCYYIGATDDAATKIINEVSKPLAHHIPVEKICEKLKKKDSQICELKYDKQIDLSTVDLKKLRVKELKKILDDWGETCKGCAEKSDYIRKINELMPKYAPKAASARTDL [MANF] | 0.0195 | -0.366 | -3.76 | 0.682 | 54.1 | 52.7
3 | MAPWPPKGLVPAMLWGLSLFLNLPGPIWLQPSPPPQSSPPPQPHPCHTCRGLVDSFNKGLERTIRDNFGGGNTAWEEENLSKYKDSETRLVEVLEGVCSKSDFECHRLLELSEELVESWWFHKQQEAPDLFQWLCSDSLKLCCPAGTFGPSCLPCPGGTERPCGGYGQCEGEGTRGGSGHCDCQAGYGGEACGQCGLGYFEAERNASHLVCSACFGPCARCSGPEESNCLQCKKGWALHHLKCVDIDECGTEGANCGADQFCVNTEGSYECRDCAKACLGCMGAGPGRCKKCSPGYQQVGSKCLDVDECETEVCPGENKQCENTEGGYRCICAEGYKQMEGICVKEQIPESAGFFSEMTEDELVVLQQMFFGIIICALATLAAKGDLVFTAIFIGAVAAMTGYWLSERSDRVLEGFIKGR [CRELD1] | -0.0647 | 0.91 | 1.48 | -0.215 | 53.8 | 53
4 | MAAASGSVLQRCIVSPAGRHSASLIFLHGSGDSGQGLRMWIKQVLNQDLTFQHIKIIYPTAPPRSYTPMKGGISNVWFDRFKITNDCPEHLESIDVMCQVLTDLIDEEVKSGIKKNRILIGGFSMGGCMAIHLAYRNHQDVAGVFALSSFLNKASAVYQALQKSNGVLPELFQCHGTADELVLHSWAEETNSMLKSLGVTTKFHSFPNVYHELSKTELDILKLWILTKLPGEMEKQK [LYPLAL1] | -0.0182 | 1.32 | 0.974 | 0.361 | 52 | 52.3
5 | MDFTAQPKPATALCGVVSADGKIAYPPGVKEITDKITTDEMIKRLKMVVKTFMDMDQDSEDEKQQYLPLALHLASEFFLRNPNKDVRLLVACCLADIFRIYAPEAPYTSHDKLKDIFLFITRQLKGLEDTKSPQFNRYFYLLENLAWVKSYNICFELEDCNEIFIQLFRTLFSVINNSHNKKVQMHMLDLMSSIIMEGDGVTQELLDSILINLIPAHKNLNKQSFDLAKVLLKRTVQTIEACIANFFNQVLVLGRSSVSDLSEHVFDLIQELFAIDPHLLLSVMPQLEFKLKSNDGEERLAVVRLLAKLFGSKDSDLATQNRPLWQCFLGRFNDIHVPVRLESVKFASHCLMNHPDLAKDLTEYLKVRSHDPEEAIRHDVIVTIITAAKRDLALVNDQLLGFVRERTLDKRWRVRKEAMMGLAQLYKKYCLHGEAGKEAAEKVSWIKDKLLHIYYQNSIDDKLLVEKIFAQYLVPHNLETEERMKCLYYLYASLDPNAVKALNEMWKCQNMLRSHVRELLDLHKQPTSEANCSAMFGKLMTIAKNLPDPGKAQDFVKKFNQVLGDDEKLRSQLELLISPTCSCKQADICVREIARKLANPKQPTNPFLEMVKFLLERIAPVHIDSEAISALVKLMNKSIEGTADDEEEGVSPDTAIRSGLELLKVLSFTHPTSFHSAETYESLLQCLRMEDDKVAEAAIQIFRNTGHKIETDLPQIRSTLIPILHQKAKRGTPHQAKQAVHCIHAIFTNKEVQLAQIFEPLSRSLNADVPEQLITPLVSLGHISMLAPDQFASPMKSVVANFIVKDLLMNDRSTGEKNGKLWSPDEEVSPEVLAKVQAIKLLVRWLLGMKNNQSKSANSTLRLLSAMLVSEGDLTEQKRISKSDMSRLRLAAGSAIMKLAQEPCYHEIITPEQFQLCALVINDECYQVRQIFAQKLHKALVKLLLPLEYMAIFALCAKDPVKERRAHARQCLLKNISIRREYIKQNPMATEKLLSLLPEYVVPYMIHLLAHDPDFTRSQDVDQLRDIKECLWFMLEVLMTKNENNSHAFMKKMAENIKLTRDAQSPDESKTNEKLYTVCDVALCVINSKSALCNADSPKDPVLPMKFFTQPEKDFCNDKSYISEETRVLLLTGKPKPAGVLGAVNKPLSATGRKPYVRSTGTETGSNINVNSELNPSTGNRSREQSSEAAETGVSENEENPVRIISVTPVKNIDPVKNKEINSDQATQGNISSDRGKKRTVTAAGAENIQQKTDEKVDESGPPAPSKPRRGRRPKSESQGNATKNDDLNKPINKGRKRAAVGQESPGGLEAGNAKAPKLQDLAKKAAPAERQIDLQR [PDS5A] | -0.126 | 5.43 | 11.2 | -0.0007 | 47.2 | 48.7
6 | PSME4 | -0.0943 | -0.516 | -0.817 | -0.391 | 52.1 | 52.2
7 | RAB35 | 0.0226 | -0.529 | -1.17 | -0.0302 | 56.3 | 56.2
8 | MSGSMATAEASGSDGKGQEVETSVTYYRLEEVAKRNSLKELWLVIHGRVYDVTRFLNEHPGGEEVLLEQAGVDASESFEDVGHSSDAREMLKQYYIGDIHPSDLKPESGSKDPSKNDTCKSCWAYWILPIIGAVLLGFLYRYYTSESKSS [CYB5B] | 0.0898 | 1.14 | -0.285 | -0.0447 | 57.2 | 
9 | MSWESGAGPGLGSQGMDLVWSAWYGKCVKGKGSLPLSAHGIVVAWLSRAEWDQVTVYLFCDDHKLQRYALNRITVWRSRSGNELPLAVASTADLIRCKLLDVTGGLGTDELRLLYGMALVRFVNLISERKTKFAKVPLKCLAQEVNIPDWIVDLRHELTHKKMPHINDCRRGCYFVLDWLQKTYWCRQLENSLRETWELEEFREGIEEEDQEEDKNIVVDDITEQKPEPQDDGKSTESDVKADGDSKGSEEVDSHCKKALSHKELYERARELLVSYEEEQFTVLEKFRYLPKAIKAWNNPSPRVECVLAELKGVTCENREAVLDAFLDDGFLVPTFEQLAALQIEYEDGQTEVQRGEGTDPKSHKNVDLNDVLVPKPFSQFWQPLLRGLHSQNFTQALLERMLSELPALGISGIRPTYILRWTVELIVANTKTGRNARRFSAGQWEARRGWRLFNCSASLDWPRMVESCLGSPCWASPQLLRIIFKAMGQGLPDEEQEKLLRICSIYTQSGENSLVQEGSEASPIGKSPYTLDSLYWSVKPASSSFGSEAKAQQQEEQGSVNDVKEEEKEEKEVLPDQVEEEEENDDQEEEEEDEDDEDDEEEDRMEVGPFSTGQESPTAENARLLAQKRGALQGSAWQVSSEDVRWDTFPLGRMPGQTEDPAELMLENYDTMYLLDQPVLEQRLEPSTCKTDTLGLSCGVGSGNCSNSSSSNFEGLLWSQGQLHGLKTGLQLF [LAS1L] | 0.658 | 1.98 | 2.81 | -1.4 | 49.7 | 51
10 | MRFRIYKRKVLILTLVVAACGFVLWSSNGRQRKNEALAPPLLDAEPARGAGGRGGDHPSVAVGIRRVSNVSAASLVPAVPQPEADNLTLRYRSLVYQLNFDQTLRNVDKAGTWAPRELVLVVQVHNRPEYLRLLLDSLRKAQGIDNVLVIFSHDFWSTEINQLIAGVNFCPVLQVFFPFSIQLYPNEFPGSDPRDCPRDLPKNAALKLGCINAEYPDSFGHYREAKFSQTKHHWWWKLHFVWERVKILRDYAGLILFLEEDHYLAPDFYHVFKKMWKLKQQECPECDVLSLGTYSASRSFYGMADKVDVKTWKSTEHNMGLALTRNAYQKLIECTDTFCTYDDYNWDWTLQYLTVSCLPKFWKVLVPQIPRIFHAGDCGMHHKKTCRPSTQSAQIESLLNNNKQYMFPETLTISEKFTVVAISPPRKNGGWGDIRDHELCKSYRRLQ [MGAT2] | -0.141 | -0.501 | -0.689 | -0.0662 | 53.8 | 53.2
11 | MLAARLVCLRTLPSRVFHPAFTKASPVVKNSITKNQWLLTPSREYATKTRIGIRRGRTGQELKEAALEPSMEKIFKIDQMGRWFVAGGAAVGLGALCYYGLGLSNEIGAIEKAVIWPQYVKDRIHSTYMYLAGSIGLTALSAIAISRTPVLMNFMMRGSWVTIGVTFAAMVGAGMLVRSIPYDQSPGPKHLAWLLHSGVMGAVVAPLTILGGPLLIRAAWYTAGIVGGLSTVAMCAPSEKFLNMGAPLGVGLGLVFVSSLGSMFLPPTTVAGATLYSVAMYGGLVLFSMFLLYDTQKVIKRAEVSPMYGVQKYDPINSMLSIYMDTLNIFMRVATMLATGGNRKK [GHITM] | 0.0227 | -2.96 | -4.77 | -0.101 | 54.7 | 55.1
12 | DNMBP | -0.133 | -0.0907 | 0.88 | 0.00933 | 48.8 | 49
13 | MSPTISHKDSSRQRRPGNFSHSLDMKSGPLPPGGWDDSHLDSAGREGDREALLGDTGTGDFLKAPQSFRAELSSILLLLFLYVLQGIPLGLAGSIPLILQSKNVSYTDQAFFSFVFWPFSLKLLWAPLVDAVYVKNFGRRKSWLVPTQYILGLFMIYLSTQVDRLLGNTDDRTPDVIALTVAFFLFEFLAATQDIAVDGWALTMLSRENVGYASTCNSVGQTAGYFLGNVLFLALESADFCNKYLRFQPQPRGIVTLSDFLFFWGTVFLITTTLVALLKKENEVSVVKEETQGITDTYKLLFAIIKMPAVLTFCLLILTAKIGFSAADAVTGLKLVEEGVPKEHLALLAVPMVPLQIILPLIISKYTAGPQPLNTFYKAMPYRLLLGLEYALLVWWTPKVEHQGGFPIYYYIVVLLSYALHQVTVYSMYVSIMAFNAKVSDPLIGGTYMTLLNTVSNLGGNWPSTVALWLVDPLTVKECVGASNQNCRTPDAVELCKKLGGSCVTALDGYYVESIICVFIGFGWWFFLGPKFKKLQDEGSSSWKCKRNN [SLC33A1] | -0.141 | -1.24 | -1.12 | -0.0645 | 58.5 | 57.9
